Here are results for 1 substance from patent publication US20260042849A1, “PROTEASE-CLEAVABLE MOIETIES AND METHODS OF USE THEREOF” (CytomX Therapeutics, Inc., priority 2022, published 2026).

The subject of series [1] is H292 (human lung cancer-derived cell line) subcutaneous xenograft tumors. As to the kind of experiment: In vivo efficacy in mouse H292 xenograft model. Also on record: species or system nu/nu mice. Particulars: 9 mg/kg intraperitoneally on day 1, H292 xenograft. As to the method:
In this study, H292 (human lung cancer-derived cell line) subcutaneous xenograft tumors in female nu/nu mice of 6-8 weeks of age were grown to an average volume of 95-247 mm^3. […] The mice were then randomized into groups of 8 mice each and each group was dosed intraperitoneally on day 1 with 9 mg/kg of the indicated test article.

For series [2], the system named is human bone marrow aspirates. The series is described as follows: In situ stability in human bone marrow aspirates. The series is classed as in vitro ADME. Conditions: 20 μg/mL, 37° C., 21 or 24 hours; normalized to CM 2001 cleavage. As to the method:
Fresh human bone marrow aspirates from healthy donors were purchased from Stemcell Technology Inc. (Catalog No. 70502) and AllCells Inc. and were processed to lyse red blood cells and washed 5 times with buffer or serum-free media. […] An equal volume of AF647-labeled c225 activatable antibodies prepared at 40 μg/mL in serum-free RPMI media were then added to form a mixture and incubated at a final concentration of 20 μg/mL at 37° C. for 21 or 24 hours. Cells were pelleted through centrifugation for 5 min at 300× g. Supernatants were collected from each incubated mixture and transferred into a well of a 96-well PCR plate for assay by capillary electrophoresis. Each supernatant sample was mixed with Pico Sample Buffer (Perkin Elmer) containing 2-beta-mercaptoethanol at four parts sample and one part of Pico Sample Buffer and then heated at 95° C. for 10 minutes. Substrate cleavage was measured by capillary electrophoresis using a LabChip GXII Touch system (Perkin Elmer) with the HT Pico Protein Express 100 protocol (Perkin Elmer). Protein Express Assay LabChips (Perkin Elmer #760499) were set up using the protocol of the Protein Pico Assay Reagent Kit (Perkin Elmer #760498).

Series [3] has as its target MMP9 (Homo sapiens, UniProt P14780). The series is described as follows: In vitro cleavability of activatable antibodies, capillary electrophoresis. The series is classed as biochemical. Also on record: purchased R&D Systems 911-MP.
Series [4] concerns the target T1, MT-SP1 (Homo sapiens, UniProt Q9Y5Y6).
T1 sequence (Q9Y5Y6 615-855 limits assumed): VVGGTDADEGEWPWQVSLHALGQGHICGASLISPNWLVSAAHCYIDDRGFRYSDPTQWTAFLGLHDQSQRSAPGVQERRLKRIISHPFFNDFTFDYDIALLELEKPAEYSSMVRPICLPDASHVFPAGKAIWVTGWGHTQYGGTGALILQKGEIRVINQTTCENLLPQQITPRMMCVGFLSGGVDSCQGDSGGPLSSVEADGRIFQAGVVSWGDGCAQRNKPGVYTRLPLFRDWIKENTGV
Described as above. The series is classed as biochemical. On the set-up: purchased R&D Systems 3946-SEB. The protocol:
The studies provided herein evaluate the in vitro cleavability of activatable antibodies containing exemplary CMs that include a substrate cleavable by a matrix metalloprotease (MMP) and/or a substrate cleavable by a matriptase (MT-SP1).
Each activatable antibody (500 nM) was incubated with 10 nM of the indicated single protease for 4 hours at 37° C. Human recombinant proteases were purchased from R&D Systems: MT-SP1 (catalog No: 3946-SEB), MMP2 (catalog No: 902-MP), MMP9 (catalog No: 911-MP), and MMP14 (catalog No: 918-MP). […] Protease concentrations were determined by active site titration. Activity assays were performed in the following buffers: 50 mM TRIS-HCl (pH 7.4), 150 mM NaCl, 0.05% Tween 20 for MT-SP1, 50 mM Tris-HCl, 10 mM CaCl2), 150 mM NaCl, 0.05% (w/v) Brij-35, pH 7.5 for MMP2 and MMP9, and 50 mM HEPES (pH 6.8), 10 mM CaCl2), 0.5 mM MgCl2 for MMP14. Following incubation, the presence of cleavage product was determined by capillary electrophoresis for each protease enzyme using a LabChip GXII Touch system (Perkin Elmer) with the HT Protein Express 100 protocol (Perkin Elmer). LabChip GXII Touch HT Chips (Perkin Elmer #760499) were set up using the protocol of the Protein Express Assay Reagent Kit (Perkin Elmer #CLS960008).

Sequence of MMP9 (P14780 107-707 limits assumed): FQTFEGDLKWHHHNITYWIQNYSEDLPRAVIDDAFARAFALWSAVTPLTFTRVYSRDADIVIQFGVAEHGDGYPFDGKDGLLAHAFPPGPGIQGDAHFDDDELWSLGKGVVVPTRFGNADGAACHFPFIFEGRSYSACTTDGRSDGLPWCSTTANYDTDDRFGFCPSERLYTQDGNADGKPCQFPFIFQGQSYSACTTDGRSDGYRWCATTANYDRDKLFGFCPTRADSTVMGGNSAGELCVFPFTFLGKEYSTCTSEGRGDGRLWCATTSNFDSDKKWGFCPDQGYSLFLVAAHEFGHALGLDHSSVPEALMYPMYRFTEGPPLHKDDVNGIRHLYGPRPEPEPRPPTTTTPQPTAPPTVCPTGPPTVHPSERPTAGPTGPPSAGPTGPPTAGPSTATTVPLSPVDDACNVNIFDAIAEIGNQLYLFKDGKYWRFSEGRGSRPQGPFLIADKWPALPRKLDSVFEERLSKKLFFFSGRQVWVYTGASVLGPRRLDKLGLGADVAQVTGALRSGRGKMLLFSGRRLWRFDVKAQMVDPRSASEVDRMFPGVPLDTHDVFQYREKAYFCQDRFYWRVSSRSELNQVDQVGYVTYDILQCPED

As for “APMGLKH [CM 7046, also tested as internally quenched peptide probe]”, in series [1], the “in vivo efficacy (mean tumor volume, FIG. 2A)” value is recorded as “comparable with the activatable antibody with the control CM 2001”. In series [2], the “in situ cleavage in human bone marrow aspirates (FIG. 3)” value is “demonstrated a resistance to cleavage in situ in the bone marrow”. Further, the “Cleavability (%) 4h MMP9” value in series [3] (500 nM activatable antibody, 10 nM protease, 4 hours at 37° C.) was found to be 45.1%. Also, the “percent activation for MMP9” value in series [3] (Tables 6A-6C, activatable antibody format) was “greater than 30%”. Further, the “Cleavability (%) 4h MT-SP1” value in series [4] was 5.37%.
